Data: paper PMC9103804, “RNA and Protein Determinants Mediate Differential Binding of miRNAs by a Viral Suppressor of RNA Silencing Thus Modulating Antiviral Immune Responses in Plants” (International Journal of Molecular Sciences, 2022)

Legend:
[1] = biological target: T1, CIRV p19 (Carnation Italian ringspot virus, UniProt Q66104 1-172); assay: EMSA; details: protein: recombinant, tags: GST tag removed (PreScission, pGEX-6P-1), chain copies: 2, label: 5'-32P, 3' overhangs 2 nt
T1 sequence: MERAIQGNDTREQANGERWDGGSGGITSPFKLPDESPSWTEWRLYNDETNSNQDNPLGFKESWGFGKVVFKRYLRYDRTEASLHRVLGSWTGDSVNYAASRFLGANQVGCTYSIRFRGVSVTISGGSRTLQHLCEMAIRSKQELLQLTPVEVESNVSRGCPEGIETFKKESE

[2] = biological target: T2, TAV 2b (Tomato aspermy virus, UniProt Q8UYT3 1-95); assay: competition; Kc vs labeled gf698; details: protein: recombinant, tags: His-SUMO removed, chain copies: 2, label: 5'-32P, 3' overhangs 2 nt
T2 sequence: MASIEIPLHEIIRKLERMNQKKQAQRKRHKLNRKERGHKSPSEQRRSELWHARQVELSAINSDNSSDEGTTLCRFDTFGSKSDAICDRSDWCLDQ

[3] = biological target: the molecule itself; assay: AUC; analytical ultracentrifugation at protein concentrations of 1.2-13 uM (CIRV p19); data not shown; procedure as in ref. 36
[4] = biological target: T2, TAV 2b; assay: EMSA; details: protein: recombinant; tags: His-SUMO removed; chain copies: 2; label: 5'-32P; 3' overhangs 2 nt

B1: miR162-19gC/1*C (dsRNA)
RNA 1: UCGAUAAACCUCUGCAUCCAG
RNA 2: CGAUGCAGAGGUUCAUCGAUC
modifications: 5'-phosphate
- Kd ([1]; C/C mismatch): 0.34 ± 0.15 nM

B2: AtmiR168a (dsRNA)
RNA 1: UCGCUUGGUGCAGGUCGGGAA
RNA 2: CCCGCCUUGCAUCAACUGAAU
modifications: 5'-phosphate
- Kd ([1]; mismatches and G-U wobbles): 2.49 ± 0.88 nM
- Ki ([2]; mismatches and G-U wobbles): 12.1 ± 0.7 nM

B3: miR162-0 (dsRNA)
RNA 1: UCGAUAAACCUCUGCAUCCAG
RNA 2: GGAUGCAGAGGUUCAUCGAUC
modifications: 5'-phosphate
- Kd [1]: 0.15 ± 0.06 nM

B4: miR162-11gU/9*C (dsRNA)
RNA 1: UCGAUAAACCUCUGCAUCCAG
RNA 2: GGAUGCAGCGGUUCAUCGAUC
modifications: 5'-phosphate
- Kd ([1]; C/U mismatch): 0.22 ± 0.03 nM

B5: miR162-12gC/8*C (dsRNA)
RNA 1: UCGAUAAACCUCUGCAUCCAG
RNA 2: GGAUGCACAGGUUCAUCGAUC
modifications: 5'-phosphate
- Kd ([1]; C/C mismatch): 0.28 ± 0.24 nM

B6: miR162-12gC/8*A (dsRNA)
RNA 1: UCGAUAAACCUCUGCAUCCAG
RNA 2: GGAUGCAAAGGUUCAUCGAUC
modifications: 5'-phosphate
- Kd ([1]; A/C mismatch): 0.16 ± 0.03 nM

B7: miR162-15gU/5*G (dsRNA)
RNA 1: UCGAUAAACCUCUGUAUCCAG
RNA 2: GGAUGCAGAGGUUCAUCGAUC
modifications: 5'-phosphate
- Kd ([1]; G-U wobble): 0.1 ± 0.01 nM

B8: AtmiR168a variant 1 (dsRNA)
RNA 1: UCGCUUGGUGCAGGUCGGGAA
RNA 2: CCCGCCCUGCAUCAACUGAAU
modifications: 5'-phosphate
- Kd ([1]; mismatches and G-U wobbles): 3.13 ± 1.67 nM

B9: miR162-10gC/10*A (dsRNA)
RNA 1: UCGAUAAACCUCUGCAUCCAG
RNA 2: GGAUGCAGAAGUUCAUCGAUC
modifications: 5'-phosphate
- Kd ([1]; A/C mismatch): 0.35 ± 0.24 nM

B10: AtmiR168a variant 4 (dsRNA)
RNA 1: UCGCUUGGUGCAGGUCGGGAA
RNA 2: CCCGACCUGCAUCAAAUGAAU
modifications: 5'-phosphate
- Kd ([1]; G-U wobbles): 2.65 ± 0.49 nM

B11: miR162-19gU/1*G (dsRNA)
RNA 1: UCGAUAAACCUCUGCAUCUAG
RNA 2: GGAUGCAGAGGUUCAUCGAUC
modifications: 5'-phosphate
- Kd ([1]; G-U wobble): 0.15 ± 0.12 nM

B12: miR162-13gU/7*G (dsRNA)
RNA 1: UCGAUAAACCUCUGCAUCCAG
RNA 2: GGAUGCGGAGGUUCAUCGAUC
modifications: 5'-phosphate
- Kd ([1]; G-U wobble): 1.82 ± 0.38 nM

B13: p19 protein of Carnation Italian ringspot virus (CIRV) (natural protein)
chain: MERAIQGNDTREQANGERWDGGSGGITSPFKLPDESPSWTEWRLYNDETNSNQDNPLGFKESWGFGKVVFKRYLRYDRTEASLHRVLGSWTGDSVNYAASRFLGANQVGCTYSIRFRGVSVTISGGSRTLQHLCEMAIRSKQELLQLTPVEVESNVSRGCPEGIETFKKESE
notes: p19 suppressor of RNA silencing, Carnation Italian ringspot virus (Tombusvirus); the p19 ORF cloned into pGEX-6P-1, GST removed with PreScission protease; Residues of the vector may be left at the N-terminus after PreScission cleavage (surmised); also called CIRV p19; p19 wt; source: E. coli BL21 (DE3) RIPL, purified (GSTrap, PreScission cleavage, Resource Q anion exchange)
- stoichiometry N [3]: 2

B14: gf698 siRNA (dsRNA)
RNA 1: UAGUUCAUCCAUGCCAUGUGU
RNA 2: ACAUGGCAUGGAUGAACUAUA
modifications: 5'-phosphate
- Kd [1]: 0.06 ± 0.04 nM
- Kd [4]: 0.68 ± 0.15 nM
- Ki [2]: 0.53 ± 0.08 nM

B15: AtmiR162 (dsRNA)
RNA 1: UCGAUAAACCUCUGCAUCCAG
RNA 2: GGAGGCAGCGGUUCAUCGAUC
modifications: 5'-phosphate
- Kd ([1]; mismatches): 0.06 ± 0.02 nM
- Ki ([2]; mismatches): 0.67 ± 0.09 nM

B16: miR162-12gG/8*U (dsRNA)
RNA 1: UCGAUAAACCUGUGCAUCCAG
RNA 2: GGAUGCAUAGGUUCAUCGAUC
modifications: 5'-phosphate
- Kd ([1]; U-G wobble): 0.31 ± 0.08 nM

B17: miR162-13gG/7*U (dsRNA)
RNA 1: UCGAUAAACCUCGGCAUCCAG
RNA 2: GGAUGCUGAGGUUCAUCGAUC
modifications: 5'-phosphate
- Kd ([1]; U-G wobble): 1.53 ± 0.49 nM

B18: miR162-14gG/6*A (dsRNA)
RNA 1: UCGAUAAACCUCUGCAUCCAG
RNA 2: GGAUGAAGAGGUUCAUCGAUC
modifications: 5'-phosphate
- Kd ([1]; A/G mismatch): 0.86 ± 0.49 nM

B19: miR162-12gG/8*G (dsRNA)
RNA 1: UCGAUAAACCUGUGCAUCCAG
RNA 2: GGAUGCAGAGGUUCAUCGAUC
modifications: 5'-phosphate
- Kd ([1]; G/G mismatch): 0.07 ± 0.04 nM

B20: miR162-16gU/4*G (dsRNA)
RNA 1: UCGAUAAACCUCUGCUUCCAG
RNA 2: GGAGGCAGAGGUUCAUCGAUC
modifications: 5'-phosphate
- Kd ([1]; G-U wobble): 0.17 ± 0.05 nM

B21: miR162-12gU/8*G (dsRNA)
RNA 1: UCGAUAAACCUUUGCAUCCAG
RNA 2: GGAUGCAGAGGUUCAUCGAUC
modifications: 5'-phosphate
- Kd ([1]; G-U wobble): 1.93 ± 0.13 nM

B22: miR162-14gG/6*U (dsRNA)
RNA 1: UCGAUAAACCUCUGCAUCCAG
RNA 2: GGAUGUAGAGGUUCAUCGAUC
modifications: 5'-phosphate
- Kd ([1]; U-G wobble): 0.15 ± 0.09 nM

B23: AtmiR168a variant 2 (dsRNA)
RNA 1: UCGCUUGGUGCAGGUCGGGAA
RNA 2: CCCGCCUUGCACCAACUGAAU
modifications: 5'-phosphate
- Kd ([1]; mismatches and G-U wobbles): 0.71 ± 0.28 nM
- Ki ([2]; mismatches and G-U wobbles): 1.1 ± 0.2 nM

B24: miR162-18gC/2*C (dsRNA)
RNA 1: UCGAUAAACCUCUGCAUCCAG
RNA 2: GCAUGCAGAGGUUCAUCGAUC
modifications: 5'-phosphate
- Kd ([1]; C/C mismatch): 0.12 ± 0.08 nM

B25: miR162-16gA/4*G (dsRNA)
RNA 1: UCGAUAAACCUCUGCAUCCAG
RNA 2: GGAGGCAGAGGUUCAUCGAUC
modifications: 5'-phosphate
- Kd ([1]; G/A mismatch): 0.38 ± 0.13 nM

B26: miR162-10gU/10*G (dsRNA)
RNA 1: UCGAUAAACUUCUGCAUCCAG
RNA 2: GGAUGCAGAGGUUCAUCGAUC
modifications: 5'-phosphate
- Kd ([1]; G-U wobble): 0.63 ± 0.21 nM

B27: miR162-10gC/10*C (dsRNA)
RNA 1: UCGAUAAACCUCUGCAUCCAG
RNA 2: GGAUGCAGACGUUCAUCGAUC
modifications: 5'-phosphate
- Kd ([1]; C/C mismatch): 1.73 ± 0.57 nM

B28: miR162-17gU/3*G (dsRNA)
RNA 1: UCGAUAAACCUCUGCAUCCAG
RNA 2: GGGUGCAGAGGUUCAUCGAUC
modifications: 5'-phosphate
- Kd ([1]; G-U wobble): 0.09 ± 0.04 nM

B29: miR162-17gU/3*C (dsRNA)
RNA 1: UCGAUAAACCUCUGCAUCCAG
RNA 2: GGCUGCAGAGGUUCAUCGAUC
modifications: 5'-phosphate
- Kd ([1]; C/U mismatch): 0.3 ± 0.17 nM

B30: miR162-14gU/6*G (dsRNA)
RNA 1: UCGAUAAACCUCUUCAUCCAG
RNA 2: GGAUGGAGAGGUUCAUCGAUC
modifications: 5'-phosphate
- Kd ([1]; G-U wobble): 0.45 ± 0.08 nM

B31: miR162-15gC/5*C (dsRNA)
RNA 1: UCGAUAAACCUCUGCAUCCAG
RNA 2: GGAUCCAGAGGUUCAUCGAUC
modifications: 5'-phosphate
- Kd ([1]; C/C mismatch): 0.23 ± 0.08 nM

B32: miR162-11gU/9*G (dsRNA)
RNA 1: UCGAUAAACCUCUGCAUCCAG
RNA 2: GGAUGCAGGGGUUCAUCGAUC
modifications: 5'-phosphate
- Kd ([1]; G-U wobble): 0.14 ± 0.12 nM

B33: AtmiR168a variant 5 (dsRNA)
RNA 1: UCGCUUGGUGCAGGUCGGGAA
RNA 2: CCCGACUUGCACCAAGUGAAU
modifications: 5'-phosphate
- Kd ([1]; G-U wobbles): 0.48 ± 0.17 nM
- Ki ([2]; G-U wobbles): 1.4 ± 0.2 nM

B34: AtmiR168a variant 6 (dsRNA)
RNA 1: UCGCUUGGUGCAGGUCGGGAA
RNA 2: CCCGACCUGCACCAAGCGAAU
modifications: 5'-phosphate
- Kd [1]: 0.34 ± 0.16 nM
- Ki [2]: 0.38 ± 0.05 nM

B35: miR162-18gU/2*G (dsRNA)
RNA 1: UCGAUAAACCUCUGCAUUCAG
RNA 2: GGAUGCAGAGGUUCAUCGAUC
modifications: 5'-phosphate
- Kd ([1]; G-U wobble): 0.13 ± 0.03 nM

B36: AtmiR168a variant 3 (dsRNA)
RNA 1: UCGCUUGGUGCAGGUCGGGAA
RNA 2: CCCGCCCUGCACCAACUGAAU
modifications: 5'-phosphate
- Kd ([1]; mismatches): 1 ± 0.24 nM
- Ki ([2]; mismatches): 2.2 ± 0.4 nM

B37: miR162-13gU/7*C (dsRNA)
RNA 1: UCGAUAAACCUCUGCAUCCAG
RNA 2: GGAUGCCGAGGUUCAUCGAUC
modifications: 5'-phosphate
- Kd ([1]; C/U mismatch): 1.01 ± 0.1 nM
